Source: article PMC9007350, “Aurintricarboxylic acid is a canonical disruptor of the TAZ-TEAD transcriptional complex” (PLoS ONE, 2022)
One block for each binder: values may come before it. Ends that are not written are not given here.

Tests used:
Test in all cases: fluorescence polarisation; TEAD4 (217-434) at 350 nM, carboxyfluorescein peptide probe at 25 nM; disruptors titrated 0-150 uM to the probe-TEAD complex; 25 C, 20 min
Conditions in all cases: both partners purified
[1] = molecular target: YAP/TAZ-binding domain of human TEAD4 (217-434), acylation state not stated (human, UniProt Q15561 217-434)
[2] = molecular target: T1, YAP/TAZ-binding domain of human TEAD4 (217-434), acylated form (human, UniProt Q15561 217-434, acylated)
T1 construct: also called acylated TEAD

[3] = molecular target: T2, YAP/TAZ-binding domain of human TEAD4 (217-434), deacylated form (human, UniProt Q15561 217-434)
T2 construct: also called deacylated TEAD
T2 sequence (Q15561 217-434): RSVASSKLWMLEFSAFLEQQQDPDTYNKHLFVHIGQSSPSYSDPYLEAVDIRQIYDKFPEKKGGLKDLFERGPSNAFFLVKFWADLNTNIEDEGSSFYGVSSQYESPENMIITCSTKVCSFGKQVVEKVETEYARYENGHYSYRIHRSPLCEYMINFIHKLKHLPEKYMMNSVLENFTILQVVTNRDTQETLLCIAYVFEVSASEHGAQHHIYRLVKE

YAP/TAZ-binding domain of human TEAD4 (217-434), acylation state not stated, sequence (Q15561 217-434): as above
T1 sequence (Q15561 217-434): as above

binding result [1]: binds
B1: Mouse Vgll1 (26-51) peptide probe, carboxyfluorescein-labelled (peptide, UniProt Q99NC0 26-51, looked up)
peptide: GSVIFTYFEGDINSMVDEHFSRALRN
modifications: also: carboxyfluorescein label, position not given here
notes: mouse Vgll1 residues 26-51; also called Vgll1 peptide probe

binding result [2]: binds
binding result [3]: binds
B2: Human TAZ (23-57) peptide probe, carboxyfluorescein-labelled (peptide, UniProt Q9GZV5 23-57, looked up)
peptide: DLDTDLEALFNSVMNPKPSSWRKKILPESFFKEPD
modifications: carboxyfluorescein label (position not given)
notes: human TAZ residues 23-57, UniProt Q9GZV5; also called TAZ peptide probe; TAZ probe

binding result [1]: binds
B3: Human YAP (61-100) peptide probe, carboxyfluorescein-labelled (peptide, UniProt P46937 61-100, looked up)
peptide: SETDLEALFNAVMNPKTANVPQTVPMRLRKLPDSFFKPPE
modifications: carboxyfluorescein label (position not given)
notes: human YAP (Yes-associated protein) residues 61-100; also called YAP peptide probe
